For data set [1] the following is noted: rats; cited from earlier work.
Data set [2] in a line: PK parameters for rats and Ctrans, two-compartment model with nonlinear only clearance pathway (phenytoin). Format: in vivo. As to conditions: rats. How it is done: Its PK in rats is described by a two-compartment model with nonlinear only clearance described by M-M equation. For this kind of PK model, […] is determined according to Equation (3): PK parameters listed in Table 2, […] and KM, were obtained based on the protocols disclosed in Della Paschoa et al., 1998, with modification to be consistent with the current model description provided herein.

The conditions of data set [3]: cited from earlier work.
Data set [4] is described as follows: PK parameters and Ctrans, two-compartment model with nonlinear M-M clearance only (cetuximab, alemtuzumab). Particulars: calculated by Equation (3). Format: in vivo, human. As to the method:
For this kind of PK model, Ctrans is determined according to Equation (3): […]
PK parameters listed in Table 1, i.e., Vc, Vp, Q, VM and KM, were obtained based on the protocols disclosed in Dirks et al., 2008 and Mould et al., 2007, with modification to be consistent with the current model description provided herein.

Data set [5] is described as follows: PK (TMDD) model parameters and Ctrans, two-compartment TMDD model, QSS approximation. Format: in vivo, humans. As to conditions: for Ctrans: Equation (13); for Ttot = Ksyn/Kdeg: total target concentration. How it is done:
For this kind of PK model, Ctrans is determined according to Equation (2), specified by Equation (13).
where VM and KM are calculated from TMDD model parameters according to Equations (11) and (12).
PK parameters listed in Table S were obtained based on the protocols disclosed in Stein & Peletier, 2018 and Rodriguez-Vera et al., 2015, with modification to be consistent with the current model description listed in Equations (7A)-(7D).

The conditions of data set [6]: cited from earlier work; for Kdeg: degradation of free target; for Cl / Q / Vc / Vp: in vivo; for Kint: internalization of drug-target complex; for Ksyn: target synthesis.
Data set [7] in a line: PK parameters and Ctrans, two-compartment model with mixed linear and nonlinear M-M clearance pathways (four antibodies). Type of data set: in vivo, human. Particulars: calculated by Equation (2), sqrt(KM×VM/Cl). How it is done:
For this kind of PK model, Ctrans is determined according to Equation (2): […]
PK parameters listed in Table 3, i.e., Vc, Cl, Vp, Q, VM and KM, were obtained based on the protocols disclosed in Frey et al., 2010; Kloft et al., 2004; Ma et al., 2009; and Okamoto et al., 2021, with modification to be consistent with the current model description provided here.

For data set [8] the following is noted: cited from earlier work; for KM / Q / VM / Vc / Vp: in vivo; for Cl: linear clearance.
The nature of data set [9]: Minimal dose to keep plasma concentration Cp(t) above Ctrans for Tdur, two-compartment model solved with deSolve (tocilizumab). Further details: species or system humans. How it is done: This example requires that Ttrans for the desired therapeutic dose be greater than the pre-determined duration time point post-administration, which is denoted herein as Tdur.
PK model parameters for tocilizumab such as Vc, Cl, Vp, Q, KM and VM are provided in Example 3. Ctrans is determined to be 8.22 μg/mL or 8.22 mg/L; Tur is pre-determined as 28 days, which is equal to or less than Ttrans.

A short description of data set [10]: PK model parameters, Ctrans and therapeutic dose to reach Ctrans at Ttrans, one-compartment model with mixed linear and nonlinear clearance (evolocumab). Type of data set: in vivo, humans. How it is done:
Ttrans to reach the transitional concentration Ctrans for any dose level Cmax is determined according to Equation(S). When Ttrans and Ctrans are known, Cmax and the therapeutic dose can be determined as follows.
According to Equation (2), Ctrans is determined to be 115.18 nM or 17.28 mg/L assuming the molecular weight of 150 kDa or 150 kg/mol for a typical antibody. Ttrans is pre-determined to be 28 days. Ttrans and Ctrans can be used to determine Cmax based on Equation(S). Cmax can be obtained from Equation (5) via any root solver as provided in MATLAB™ and RStudio.
PK parameters listed in Table 6 were obtained based on the protocols disclosed in Kuchimanchi et al., 2018, with modification to be consistent with the current model description listed in Equations (2) and (4).

For data set [11] the following is noted: in vivo; cited from earlier work.

The source of these data is patent publication US20260120837A1, “METHODS OF DOSING THERAPEUTIC AGENTS” (Fusion Pharmaceuticals Inc., priority 2022, published 2026).

Like-named read-outs stand apart in the source and are kept apart here.

Regarding `O=C1NC(=O)C(c2ccccc2)(c2ccccc2)N1` [Phenytoin], in [1], the K12 is 0.197 min⁻¹, the K21 is 0.060 min⁻¹, the KM is 5.9 µg/mL and the VM was 272 µg/min. The Vc in data set [1] is given as 406 mL. Further, in [2], the “Q = K12 × Vc” value amounted to 79.98 mL/min and the “Vp = Q/K21” value was 1333 mL. Further, in data set [2] (calculated by Equation (3)), the Ctrans was 5.9 µg/mL.

Regarding “Alemtuzumab: antibody; PK described by two-compartment model with nonlinear only clearance”, in [3] (M-M equation coefficient), the KM is recorded as 338 (μg/L) and the VM is recorded as 1020 (μg/hour). Moreover, in data set [3] (central compartment distribution volume), the Vc is recorded as 11.3 (L). Also, in [3] (exchange rate between compartments), the Q is 1.05 (L/hour). Moreover, the Vp in [3] (peripheral compartment distribution volume) was 41.5 (L). For the same molecule, the Ctrans in data set [4] was 338 (μg/L).

In the case of “Mavrilimumab: antibody; TMDD model under the QSS condition”, in data set [5], the Ctrans is reported as 4.96 (nM) ^ and the “Ttot = Ksyn/Kdeg” value is recorded as 1.09 (nM) ^. The “VM = KsynVc” value in [5] (in vivo) is 6.72 (nmol/Day). Besides, the Michaelis constant (Km) in data set [5] (in vivo, read-out: KM = KQSS) stood at 0.0011 µM. In addition, in data set [5] (quasi-steady-state constant), the “KQSS = (Kint + Koff)/Kon” value is 1.1 (nM) ^. Besides, in data set [6], the Kdeg is on record as 2.2 (/day), the Cl is on record as 0.3 (L/day) ^, the Q is 1.7 (L/day) ^ and the Vc is on record as 2.8 L. In data set [6], the Vp is on record as 5.6 L, the Kint is listed as 2.2 (/day) and the Ksyn was 2.4 (nM/day)^. Moreover, the Koff in data set [6] (drug-target binding reverse rate constant) is 10 (/day).

For “Nimotuzumab: antibody of Table 5; TMDD model under QSS condition (text b119 says efalizumab)”, in [5], the Ctrans is 142.3 (μg/mL) and the “Ttot = Ksyn/Kdeg” value is recorded as 0.26 (μg/mL). Besides, in data set [5] (in vivo), the “KM = KQSS” value was 6.96 (mg/L) and the “VM = KsynVc” value is 2.045 (mg/hour). Also, in data set [6], the Kdeg is given as 5.5 (/hour), the Cl is given as 0.000703 (L/hour) ^, the Q is 0.00322 (L/hour) and the Vc was 1.43 L. Further, in data set [6], the Vp is given as 18.5 L, the Kint is 0.148 (/hour) and the Ksyn is recorded as 1.43 (μg/mL/hour). In data set [6] (quasi-steady-state constant), the “KQSS = (Kint + Koff)/Kon” value is reported as 6.96 (mg/L).

“Panitumumab: antibody; two-compartment model with mixed linear and nonlinear clearance”: in data set [7], the Ctrans is 3.98 µg/mL. In [8], the KM was 0.401 µg/mL, the Q is on record as 0.389 L/day, the VM is on record as 10.6 mg/day and the Vc is given as 3.66 L. Moreover, in [8], the Vp is on record as 2.58 L and the Cl is on record as 0.269 L/day.

Take “Sibrotuzumab: antibody; two-compartment model with mixed linear and nonlinear clearance”: the Ctrans in [7] was 0.579 µg/mL. In addition, in [8], the KM was 0.219 µg/mL, the Q was 0.902 L/day, the VM is 0.811 mg/day and the Vc is 4.13 L. In data set [8], the Vp is reported as 3.19 L and the Cl is 0.530 L/day.

The molecule “Tocilizumab: antibody; two-compartment model with mixed linear and nonlinear clearance” returned a Ctrans in data set [9] of 8.22 mg/L. In [7], the Ctrans was 8.22 µg/mL. Also, in data set [8], the KM is 2.7 µg/mL, the Q is given as 0.2 L/day, the VM is on record as 7.5 mg/day and the Vc is recorded as 3.5 L. Further, in data set [8], the Vp is listed as 2.9 L and the Cl is listed as 0.3 L/day.

Regarding “Vedolizumab: antibody; two-compartment model with mixed linear and nonlinear clearance”, the Ctrans in data set [7] was 0.429 µg/mL. In addition, in [8], the KM is 0.851 µg/mL, the Q is 0.161 L/day, the VM was 0.238 mg/day and the Vc is reported as 3.16 L. Besides, in data set [8], the Vp was 1.84 L and the Cl was 1.10 L/day.

B1: Evolocumab: antibody; one-compartment model with mixed linear and nonlinear clearance pathways (antibody, chains of the INN, looked up, V domains shown)
VH: EVQLVQSGAEVKKPGASVKVSCKASGYTLTSYGISWVRQAPGQGLEWMGWVSFYNGNTNYAQKLQGRGTMTTDPSTSTAYMELRSLRSDDTAVYYCARGYGMDVWGQGTTVTVSS
VL: ESALTQPASVSGSPGQSITISCTGTSSDVGGYNSVSWYQQHPGKAPKLMIYEVSNRPSGVSNRFSGSKSGNTASLTISGLQAEDEADYYCNSYTSTSMVFGGGTKLTVL
B1: the Ctrans in [10] (Equation (2)) is 115.18 nM. The Ctrans in data set [10] (assuming molecular weight of 150 kDa) is 17.28 mg/L. Moreover, in data set [11], the Cl is 0.105 L/day, the Km was 0.0273 µM, the VM is 51.02 nmol/day and the Vc is recorded as 5.18 L.
